The results in this text go back to patent US20250215072A1 (published 2025).

For experiment [1], the target named is T1, human GARP-proTGFβ1 complex (human, UniProt P01137 30-390; Q14392 20-627).
T1 construct: also called hGARP-proTGFβ1; hGARP
Kind of experiment: MSD-SET. The protocol:
(§1) MSD-SET assays were performed to measure affinities of the antibodies at equilibrium. Briefly, each test antibody was diluted 3-5 fold and samples were mixed with biotinylated antigen in a 48-well dish. The SET samples were equilibrated for 20-24 hours at room temperature. Meanwhile, a capture plate was coated with IgG (20 nM) and incubated overnight at 4° C. or 30 minutes at room temperature, followed by a blocking step with 5% BSA. After the capture plate was washed three times, SET samples were added and incubated for 150 seconds. The plate was washed once to remove unbound complexes. 250 ng/ml SA-Sulfotag was added then washed 3 times. 2× Read Buffer was added, and signals from the labeled bound complexes were read with the use of QuickPlex™ SQ 120 instrument.
(§2) As an example, MSD standard plates (MSD) were coated with a 20 nM solution of monoclonal antibody in PBS for 30 min at room temperature or overnight at 4° C. […] After 20-24 hours of equilibration, the antibody-coated plate was blocked with Blocking Buffer A (MSD) for 30 minutes at room temperature and washed with wash buffer (PBS, 0.1% BSA, 0.05% Tween-20) before adding the equilibrated antibody-antigen complexes to the plate for exactly 2.5 minutes. The plate was washed again with wash buffer before adding 250 ng/ml SULFO-TAG-labeled streptavidin secondary reagent (MSD) in PBS with 0.1% BSA. After washing with wash buffer, plates were read in MSD read buffer (MSD) using the MESO QuickPlex SQ 120 (MSD). The binding data were processed by nonlinear curve fitting in Prism 7 software (Graphpad) to calculate equilibrium binding KD values.

Experiment [2] deals with T2, human LRRC33-proTGFβ1 complex (human, UniProt P01137 30-390; Q86YC3 19-650).
T2 construct: also called hLRRC33-proTGFβ1; hLRRC33
Briefly: MSD-SET. The protocol:
as §1, §2

Experiment [3] deals with T3, murine LTBP1-proTGFβ1 complex (mouse, UniProt P04202 30-390; Q8CG19 339-1712, limits assumed).
T3 construct: also called mLTBP1-proTGFβ1
Kind of experiment: MSD-SET. The procedure:
as §1, §2

For experiment [4], the target named is T4, murine GARP-proTGFβ1 complex (mouse, UniProt P04202 30-390; G3XA59 18-628).
T4 construct: Soluble murine complex; also called mGARP-proTGFβ1
Kind of experiment: MSD-SET. The protocol: as §1, §2

Experiment [5] has as its target T1, human GARP-proTGFβ1 complex. Kind of experiment: MSD-SET. The procedure: as §2
The source holds these as a separate data set.

Experiment [6] concerns the target T2, human LRRC33-proTGFβ1 complex. Kind of experiment: MSD-SET. The procedure:
as §2
The source holds these as a separate data set.

For experiment [7], the target named is T3, murine LTBP1-proTGFβ1 complex. Kind of experiment: MSD-SET. The procedure: as §2
The source holds these as a separate data set.

In experiment [8] the target is T4, murine GARP-proTGFβ1 complex. Kind of experiment: MSD-SET. The procedure: as §2
This is another data set of the same source.

In experiment [9] the target is rat LTBP1-proTGFβ1 complex (rat, UniProt P17246 30-390; Q00918 339-1712). Briefly: MSD-SET. The protocol:
as §2

The target in experiment [10] is rat LRRC33-proTGFβ1 complex (rat, UniProt P17246 30-390; Q5BK65 25-650). Briefly: MSD-SET. The procedure:
as §2

In experiment [11] the target is T1, human GARP-proTGFβ1 complex. Briefly: BLI (Octet). The procedure: (§3) The affinity of anti-TGFβ1 antibodies was measured by Octet@ assay on human proTGFβ1 cells, while activity was measured by CAGA12 reporter cells testing human proTGFβ1 inhibition.
(In general: In BLI a coated tip is dipped into the sample, and binding shifts an interference pattern.)

Experiment [12] concerns the target T2, human LRRC33-proTGFβ1 complex. Kind of experiment: BLI (Octet). The protocol: as §3
Experiment [13] addresses T1, human GARP-proTGFβ1 complex. Briefly: MSD-SET, hIgG4. The protocol: as §1
Experiment [14] has as its target T2, human LRRC33-proTGFβ1 complex. Briefly: MSD-SET, hIgG4. The procedure: as §1
The target in experiment [15] is hLTBP1-proTGFβ1 as produced in the cell-based activation assay (human, UniProt P01137 30-390; Q14766 347-1721). Briefly: cell-based or functional assay.
The target in experiment [16] is hLTBP3-proTGFβ1 as produced in the cell-based activation assay (human, UniProt P01137 30-390; Q9NS15 44-1303). Kind of experiment: cell-based or functional assay.
In experiment [17] the target is hGARP-proTGFβ1 presented on cells (human, UniProt P01137 30-390; Q14392 20-662). Kind of experiment: cell-based or functional assay.
For experiment [18], the target named is hLRRC33-proTGFβ1 presented on cells (human, UniProt P01137 30-390; Q86YC3 19-692). Kind of experiment: cell-based or functional assay.
Experiment [19] concerns the target T4, murine GARP-proTGFβ1 complex. Briefly: BLI screen of library antibodies.

Like-named read-outs stand apart in the source and are kept apart here.

T2 sequence (P01137 30-390 limits assumed, chain 1 of 2): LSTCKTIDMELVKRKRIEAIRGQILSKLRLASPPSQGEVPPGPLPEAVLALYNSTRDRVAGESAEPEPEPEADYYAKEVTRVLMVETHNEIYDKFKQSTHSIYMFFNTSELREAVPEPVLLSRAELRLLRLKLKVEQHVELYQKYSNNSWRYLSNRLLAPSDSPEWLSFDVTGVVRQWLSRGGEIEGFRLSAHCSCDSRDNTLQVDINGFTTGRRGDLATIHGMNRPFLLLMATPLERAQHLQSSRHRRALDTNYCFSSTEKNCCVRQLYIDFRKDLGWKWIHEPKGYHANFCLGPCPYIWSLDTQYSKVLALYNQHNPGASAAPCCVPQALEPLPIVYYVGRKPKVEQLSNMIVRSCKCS
T2 sequence (Q86YC3 other isoform, or with tags, fused parts or gaps limits assumed, chain 2 of 2): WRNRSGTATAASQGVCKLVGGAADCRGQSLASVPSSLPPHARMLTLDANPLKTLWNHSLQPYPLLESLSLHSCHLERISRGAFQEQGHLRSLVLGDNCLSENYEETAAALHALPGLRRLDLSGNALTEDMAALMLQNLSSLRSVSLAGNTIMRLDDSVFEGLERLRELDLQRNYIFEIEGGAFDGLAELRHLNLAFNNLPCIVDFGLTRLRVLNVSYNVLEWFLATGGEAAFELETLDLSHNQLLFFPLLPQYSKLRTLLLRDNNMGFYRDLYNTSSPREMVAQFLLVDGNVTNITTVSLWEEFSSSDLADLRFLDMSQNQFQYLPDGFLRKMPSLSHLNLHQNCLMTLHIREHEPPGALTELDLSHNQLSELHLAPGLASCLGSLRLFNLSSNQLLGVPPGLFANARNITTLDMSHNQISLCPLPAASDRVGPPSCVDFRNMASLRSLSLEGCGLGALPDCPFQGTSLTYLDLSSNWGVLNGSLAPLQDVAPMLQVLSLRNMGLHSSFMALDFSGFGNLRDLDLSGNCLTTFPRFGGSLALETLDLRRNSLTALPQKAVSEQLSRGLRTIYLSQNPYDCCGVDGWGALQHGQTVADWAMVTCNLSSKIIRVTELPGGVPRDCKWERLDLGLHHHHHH
Chain of hLTBP1-proTGFβ1 as produced in the cell-based activation assay (P01137 30-390 limits assumed, chain 1 of 2): as the sequence (P01137 30-390 limits assumed, chain 1 of 2) above
Chain of hLTBP1-proTGFβ1 as produced in the cell-based activation assay (Q14766 347-1721 limits assumed, chain 2 of 2): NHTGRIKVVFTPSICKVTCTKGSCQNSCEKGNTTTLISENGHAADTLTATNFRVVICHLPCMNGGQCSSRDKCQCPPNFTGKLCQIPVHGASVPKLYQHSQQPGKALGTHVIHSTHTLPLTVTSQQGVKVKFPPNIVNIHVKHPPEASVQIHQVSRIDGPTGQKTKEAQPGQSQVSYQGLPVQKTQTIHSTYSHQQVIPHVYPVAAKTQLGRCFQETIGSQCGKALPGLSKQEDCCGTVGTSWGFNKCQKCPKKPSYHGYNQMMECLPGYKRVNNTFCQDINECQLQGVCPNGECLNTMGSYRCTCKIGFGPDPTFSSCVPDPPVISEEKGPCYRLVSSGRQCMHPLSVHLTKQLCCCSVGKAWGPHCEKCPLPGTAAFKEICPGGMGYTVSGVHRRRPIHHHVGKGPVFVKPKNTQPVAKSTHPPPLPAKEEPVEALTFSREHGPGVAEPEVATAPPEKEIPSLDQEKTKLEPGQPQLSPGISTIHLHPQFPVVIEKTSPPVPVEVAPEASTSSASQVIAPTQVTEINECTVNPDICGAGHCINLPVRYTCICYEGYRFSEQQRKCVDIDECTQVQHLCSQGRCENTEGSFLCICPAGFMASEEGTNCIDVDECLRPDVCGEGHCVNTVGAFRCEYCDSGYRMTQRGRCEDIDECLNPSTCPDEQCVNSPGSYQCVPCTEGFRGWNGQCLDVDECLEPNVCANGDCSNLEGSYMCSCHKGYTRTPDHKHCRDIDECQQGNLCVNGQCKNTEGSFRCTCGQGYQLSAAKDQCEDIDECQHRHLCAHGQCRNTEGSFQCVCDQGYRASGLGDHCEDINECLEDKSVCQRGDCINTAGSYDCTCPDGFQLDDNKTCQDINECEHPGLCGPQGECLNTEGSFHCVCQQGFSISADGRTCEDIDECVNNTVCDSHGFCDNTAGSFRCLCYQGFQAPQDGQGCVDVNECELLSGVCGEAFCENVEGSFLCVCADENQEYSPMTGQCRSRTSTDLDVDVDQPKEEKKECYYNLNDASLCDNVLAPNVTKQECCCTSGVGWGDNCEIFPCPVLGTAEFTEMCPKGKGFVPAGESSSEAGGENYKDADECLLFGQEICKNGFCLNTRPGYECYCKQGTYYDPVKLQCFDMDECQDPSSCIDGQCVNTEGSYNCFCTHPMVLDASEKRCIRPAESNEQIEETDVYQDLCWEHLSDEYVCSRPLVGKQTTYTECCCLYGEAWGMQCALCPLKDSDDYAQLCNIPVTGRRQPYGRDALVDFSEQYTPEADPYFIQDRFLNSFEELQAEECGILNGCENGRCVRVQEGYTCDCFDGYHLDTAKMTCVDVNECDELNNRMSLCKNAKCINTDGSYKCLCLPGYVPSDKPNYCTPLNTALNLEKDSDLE
Chain of hGARP-proTGFβ1 presented on cells (P01137 30-390 limits assumed, chain 1 of 2): as the sequence (P01137 30-390 limits assumed, chain 1 of 2) above
Chain of hGARP-proTGFβ1 presented on cells (Q14392 20-662 limits assumed, chain 2 of 2): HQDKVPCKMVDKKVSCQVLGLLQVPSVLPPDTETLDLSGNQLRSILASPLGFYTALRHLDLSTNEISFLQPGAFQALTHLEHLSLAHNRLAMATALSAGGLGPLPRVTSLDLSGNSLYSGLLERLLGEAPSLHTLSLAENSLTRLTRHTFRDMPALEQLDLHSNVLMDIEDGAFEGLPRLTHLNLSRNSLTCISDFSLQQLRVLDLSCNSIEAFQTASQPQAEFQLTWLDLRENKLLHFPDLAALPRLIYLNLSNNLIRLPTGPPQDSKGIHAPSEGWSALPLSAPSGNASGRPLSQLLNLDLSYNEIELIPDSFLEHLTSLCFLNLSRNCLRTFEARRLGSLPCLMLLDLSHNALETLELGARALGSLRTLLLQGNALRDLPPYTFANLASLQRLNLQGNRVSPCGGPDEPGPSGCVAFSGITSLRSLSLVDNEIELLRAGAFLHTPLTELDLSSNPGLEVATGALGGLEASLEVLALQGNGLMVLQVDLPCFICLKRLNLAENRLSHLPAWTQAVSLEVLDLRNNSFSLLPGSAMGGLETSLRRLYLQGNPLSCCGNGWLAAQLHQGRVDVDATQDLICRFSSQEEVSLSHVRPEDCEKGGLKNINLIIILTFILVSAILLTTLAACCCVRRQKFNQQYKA
Chain of hLRRC33-proTGFβ1 presented on cells (P01137 30-390 limits assumed, chain 1 of 2): as the sequence (P01137 30-390 limits assumed, chain 1 of 2) above
Chain of hLRRC33-proTGFβ1 presented on cells (Q86YC3 19-692 limits assumed, chain 2 of 2): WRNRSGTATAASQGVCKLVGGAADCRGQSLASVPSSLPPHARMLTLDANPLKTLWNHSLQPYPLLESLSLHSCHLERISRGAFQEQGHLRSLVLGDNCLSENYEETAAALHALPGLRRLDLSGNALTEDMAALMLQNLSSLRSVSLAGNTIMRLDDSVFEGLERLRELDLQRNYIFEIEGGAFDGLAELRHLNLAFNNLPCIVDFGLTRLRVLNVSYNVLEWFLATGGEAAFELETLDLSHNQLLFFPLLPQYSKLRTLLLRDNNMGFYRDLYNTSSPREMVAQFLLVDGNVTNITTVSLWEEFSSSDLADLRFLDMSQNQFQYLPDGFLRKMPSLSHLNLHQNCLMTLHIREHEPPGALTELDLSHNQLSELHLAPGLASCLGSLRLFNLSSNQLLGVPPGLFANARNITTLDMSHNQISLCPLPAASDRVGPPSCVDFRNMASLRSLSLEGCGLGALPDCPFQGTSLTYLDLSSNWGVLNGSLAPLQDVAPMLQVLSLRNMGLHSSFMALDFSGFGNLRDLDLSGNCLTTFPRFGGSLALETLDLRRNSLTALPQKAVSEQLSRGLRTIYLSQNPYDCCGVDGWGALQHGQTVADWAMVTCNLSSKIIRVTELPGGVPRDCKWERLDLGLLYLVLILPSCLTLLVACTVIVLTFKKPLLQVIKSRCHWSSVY

B1: Ab6 (antibody, V domains shown)
VH: EVQLVESGGGLVQPGGSLRLSCTASGFTFSSFSMDWVRQAPGKGLEWVSYISPSADTIYYADSVKGRFTISRDNAKNTLYLQMNSLRAEDTAVYYCARGVLDYGDMLMPWGQGTLVTVSS
VL: DIQMTQSPSSLSASVGDRVTITCQASQDITNYLNWYQQKPGKAPKLLIYDASNLETGVPSRFSGSGSGTDFTFTISSLQPEDIATYYCQQADNHPPWTFGGGTKVEIKR
For B1, the equilibrium dissociation constant (Kd) (as a rule, the concentration at which binding is half-saturated) in experiment [1] worked out at 27 pM; in experiment [2], 63 pM; in experiment [3] it was 24 pM; in [4] it was 21 pM; in experiment [5], 27 pM; in experiment [6], 63 pM. Moreover, the equilibrium dissociation constant (Kd) in [7] came out at 24 pM; in experiment [8], 21 pM; in experiment [9], 35 pM; in experiment [10], 86 pM; in [11], 404 pM; in experiment [12], 336 pM. Also, the values for the equilibrium dissociation constant (Kd) in experiment [13] and in [14] were 27 pM and 63 pM, respectively. Moreover, the “IC50, reporter cell assay” value in experiment [15] is 2740 pM; in experiment [16], 821 pM; in experiment [17], 324 pM; in [18], 495 pM.

B2: Ab4 (antibody, IgG4, V domains shown)
VH: EVQLVESGGGLVQPGGSLRLSCAASGFTFSSYSMNWVRQAPGKGLEWVSYISSSSSTIYYADSVKGRFTISRDNAKNSLYLQMNSLRAEDTAVYYCARGVLDYGDMLDPWGQGTLVTVSS
VL: DIQMTQSPSSLSASVGDRVTITCQASQDITNYLNWYQQKPGKAPKLLIYDASNLETGVPSRFSGSGSGTDFTFTISSLQPEDIATYYCQQADNHPPWTFGGGTKVEIK
notes: parent of Ab6
As for B2, the Kd was 2500 pM in [13] and 2100 pM in experiment [14]. Further, the “IC50, reporter cell assay” value is 5220 pM in experiment [15], 5650 pM in experiment [16], 822 pM in experiment [17] and 3500 pM in [18]. In experiment [19], the binding result is on record as “binds”.

B3: Ab20 (antibody, IgG4, V domains shown)
VH: EVQLLESGGGLVQPGGSLRLSCAASGFTFSAYAMTWVRQAPGKGLEWVSAISGSGGVTYYADSVKGRFTISRDNSKNTLYLQMNSLRAEDTAVYYCARVSSGHWDYDYWGQGTLVTVSS
VL: DIQLTQSPSSLSASVGDRVTITCRASQSISSYLNWYQQKPGKAPKLLIYAASNLQSGVPSRFSGSGSGTDFTLTISSLQPEDFATYYCQQTYTVPLTFGGGTKVEIK
With B3, the Kd in experiment [11] came out at 884 pM; in experiment [12], 545 pM; in experiment [13], 1100 pM; in experiment [14], 1600 pM. For the same molecule, the “IC50, reporter cell assay” value in experiment [15] stood at 1850 pM; in experiment [16] it was 1180 pM; in [17], 387 pM; in [18], 1350 pM.

B4: Ab2 (antibody, V domains shown)
VH: EVQLLESGGGLVQPGGSLRLSCAASGFTFADYAMTWVRQAPGKGLEWVSAISGSGAATYFADSVKGRFTISRDNSKNTLYLQMNSLRAEDTAVYYCARVSSGHWDFDYWGQGTLVTVSS
VL: DIQLTQSPSSLSASVGDRVTITCRASQSISSYLNWYQQKPGKAPKLLIYAASNLQSGVPSRFSGSGSGTDFTLTISSLQPEDFATYYCQQTYTVPLTFGGGTKVEIKR
As to B4, the Kd in experiment [11] is 778 pM; in [12], 508 pM; in [13], 1400 pM; in experiment [14], 3200 pM. Moreover, the “IC50, reporter cell assay” value came out at 3390 pM in [15], 867 pM in experiment [16], 776 pM in experiment [17] and 1380 pM in experiment [18].

B5: Ab35 (antibody, IgG4, V domains shown)
VH: EVQLLESGGGLVQPGGSLRLSCAASGFTFRNYAMSWVRQAPGKGLEWVSSISGSGGATYYADSVKGRFTISRDNSKNTLYLQMNSLRAEDTAVYYCARVSSYLWDFDYWGQGTLVTVSS
VL: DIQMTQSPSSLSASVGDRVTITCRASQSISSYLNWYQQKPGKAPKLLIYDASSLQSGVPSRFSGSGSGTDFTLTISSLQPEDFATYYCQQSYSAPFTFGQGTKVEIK
Consider B5, for which the Kd in experiment [11] turned out to be 7370 pM; in experiment [12], 545 pM; in [13], 1100 pM; in experiment [14], 1100 pM. Besides, the “IC50, reporter cell assay” value came out at 6250 pM in experiment [15], 2710 pM in [16], 3720 pM in experiment [17] and 5370 pM in [18].
